“Also recorded” adds a separate entry of the source. Where no end group is shown, it is not given here. The star is where a group is joined. EDANS = O=S(=O)(O)c1cccc2c(NCCN*)cccc12
How the values were obtained:
collagen IV = assay: Retention linker peptide binding to collagen IV-coated beads; details: peptides 20 uM, 2 hours
Protocol: (§1) A series of peptides comprising an MMP cleavable site with or without the addition of a tumor retention sequence were synthesized and conjugated to the fluorophore EDANS (5-((2-Aminoethyl)amino)naphthalene-1-sulfonic acid) (custom synthesis, ThermoFisher). […] These peptides were then tested for their ability to bind ECM proteins such as heparin, fibronectin and collagen which are found in abundance in the tumor stroma.
(§2) For fibronectin and collagen binding assays, streptavidin coupled magnetic beads (Mag Sepharose, Cytiva and Dynabeads, ThermoFisher, respectively) were first incubated with biotin-labelled fibronectin (Cytoskeleton) or biotin-labelled collagen IV (Prospec) for 1 Hr with gentle shaking. Following multiple washes, the ECM-coated beads were then incubated with Edans Peptides (20 uM) for 2 hours at room temperature with shaking in neutral or acidic binding buffer. Beads were then washed and resuspended in 100 uL of binding buffer in a black 96-well plate. Peptide binding was quantified by measuring the fluorescence of samples using excitation/emission spectra of EDANS (Ex 340/Em 490).

[1] = system: Heparan sulfate proteoglycans; details: DTx protein derived; Note 1; cited from earlier work
fibronectin = assay: Retention linker peptide binding to fibronectin-coated beads; details: peptides 20 uM
Protocol: as §1, §2

[2] = molecular target: collagen cross-linked to agarose (Sigma); assay: pulldown with collagen-agarose beads, anti-mouse IL-2 immunoblot quantified with iBright imaging system
EMT6 tumor = details: mouse, in vivo, iv, 8 mg/kg
Source text: We assessed the levels of IL-2 fusion proteins present in tumors in vivo by utilizing fluorescently labelled proteins and real-time whole-body imaging. Non-cleavable Construct GGG and Construct DD were conjugated to Dylight 650 probe according to the manufacturer's protocol (Dylight 650 Antibody labeling kit, ThermoFisher). […] BALB/c mice were subcutaneously inoculated with EMT6 breast cancer syngeneic model and when the average tumor volume reached 240 mm^3, animals were randomized into 3 groups based on tumor volumes (n=2 mice per treatment group).
Following a single dose of the labeled IL-2 fusion proteins to tumor-bearing mice, fluorescent images (excitation 640/emission 680 consistent with Dylight 650 probe ex/em spectra) were captured over 96 hrs on an IVIS system (PerkinElmer, IVIS Lumina Series III) and are shown in FIG. 15A. The fluorescence intensity in tumor area was quantified across the groups, average background tumor fluorescence (group 1) was subtracted from group 2 and 3 values at each time-point, and data was normalized to the initial fluorescence intensity of same amount of each labeled protein.

MC38 tumor = assay: Intra-tumoral injection in syngeneic MC38 colorectal cancer model; type: in vivo, mice
Protocol: Tumors and body weights were measured twice a week for the duration of the study. Tumor volumes were calculated using the following equation: (longest diameter*shortest diameter^2)/2.

CTLL-2 cells = assay: CTLL-2 proliferation assay (MTT); type: cell-based
Protocol: (§3) Recombinant MMP9 and/or MMP2 (R&D Systems) was first activated with p-aminophenylmercuric acetate and this activated protease or equivalent amount of activating solution without the protease was used to digest or mock digest the fusion protein for 1 hr, 2 hr, 4 hr and overnight (18-22 hr) at 37 C. Cleavage assays are set up in TCNB buffer: 50 mM Tris, 10 mM CaCl2), 150 mM NaCl, 0.05% Brij-35 (w/v), pH 7.5. Digested protein was aliquoted and stored at −80° C. prior to testing. Aliquots of digests were subsequently analyzed by SDS-PAGE followed by Western blotting to evaluate the extent of cleavage. Digests were also assessed in functional assays such as CTLL-2 proliferation and HEK-Blue Interleukin reporter assays. As shown in FIGS. 2A-E, essentially complete cleavage by MMP9 protease of the fusion proteins with functional site is seen after overnight incubation. In contrast, proteins containing a scrambled MMP cleavage site are not cut (FIG. 2E).
IL-2 activity was measured using either CTLL-2 cells (ATCC) or the reporter cell line HEK Blue IL2 (Invivogen, San Diego). In brief, for the CTLL-2 assay a titration of untreated and digested samples is added to 40 000 CTLL-2 cells per well in 100 ul medium in a 96-well plate and incubated at 37C in 5% CO2 for 18-22 hr. At the end of this period, 50ug/well Thiazolyl Blue Tetrazolium Bromide (MTT) (Sigma-Aldrich) was added and the plate was incubated for 5 hr at 37C in 5% CO2. Cells were lysed with 100 µl/well 10% SDS (Sigma) acidified with HCl, incubated at 37C for 4 hr, and absorbance was read at 570 nm. Recombinant human or mouse IL-2 (Peprotech and R&D systems respectively) was used as a positive control. FIGS. 3A-B, 3K-L and 3N-P show examples of untreated and digested fusion proteins evaluated in CTLL-2 proliferation assay.

MMP9 = molecular target: T1, MMP9 (Mus musculus, UniProt P41245); assay: Cleavage of fusion protein by MMP9 protease (SDS-PAGE / Western blot); type: biochemical
T1 construct: purchased R&D Systems
T1 sequence (P41245 108-730): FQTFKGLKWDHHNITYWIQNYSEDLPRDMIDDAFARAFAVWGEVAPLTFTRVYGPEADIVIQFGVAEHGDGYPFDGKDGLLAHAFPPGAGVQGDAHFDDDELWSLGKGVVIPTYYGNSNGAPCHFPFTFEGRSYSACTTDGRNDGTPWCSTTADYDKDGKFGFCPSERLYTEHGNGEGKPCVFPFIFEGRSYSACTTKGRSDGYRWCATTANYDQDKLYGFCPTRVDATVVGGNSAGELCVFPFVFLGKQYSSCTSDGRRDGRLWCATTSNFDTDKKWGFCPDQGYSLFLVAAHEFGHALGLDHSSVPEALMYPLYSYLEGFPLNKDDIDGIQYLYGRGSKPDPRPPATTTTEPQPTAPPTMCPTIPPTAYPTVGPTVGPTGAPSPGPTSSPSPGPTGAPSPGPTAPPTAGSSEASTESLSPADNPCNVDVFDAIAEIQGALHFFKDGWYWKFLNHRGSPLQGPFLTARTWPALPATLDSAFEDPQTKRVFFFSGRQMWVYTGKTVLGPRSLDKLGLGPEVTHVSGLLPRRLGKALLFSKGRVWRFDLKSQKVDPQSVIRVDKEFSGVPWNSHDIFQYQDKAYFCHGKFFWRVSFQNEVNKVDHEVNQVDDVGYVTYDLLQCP
Protocol: as §3
Untreated and digested fusion proteins were evaluated for cleavage products by Western blot. The following monoclonal antibodies were used: rat anti-mouse IL-2 antibody (JES6-1A12; ThermoFisher), goat anti-mouse IL-2 polyclonal antibody (AF-402-NA; R&D systems), mouse anti-6xHis monoclonal antibody (MA1-21315, ThermoFisher), Anti-mIgG Fc HRP conjugated (ThermoFisher cat #A16084), and Anti-human IL2 antibody (Invitrogen, cat #MA5-17097, mouse IgG1). Detection was performed using either a goat anti-rat HRP-conjugated antibody, Donkey Anti-goat HRP-conjugated antibody or Goat Anti-mouse HIRP conjugated (Jackson Immuno Research, West Grove, PA) and developed using the SuperSignal West Femto Maximum sensitivity detection reagent (ThermoFisher) following the manufacturer's recommendations.

## peptide 15: EDANS-conjugated MMP linker peptide GGGSG...; retention motif target Collagen I (GGGSGLHERHLNNN-{EDANS}; also: EDANS fluorophore conjugated at 3' end)
Collagen IV
  binding to collagen IV: binds to a lesser extent

## peptide 14: EDANS-conjugated MMP linker peptide with GPLGVRG site; retention motif target Collagen IV (KLWVLPKGPLGVRG-{EDANS}; also: EDANS fluorophore conjugated at 3' end)
Collagen IV
  binding to collagen IV: strongly binds collagen IV

## 640 (DVIRDKTKTKIESLK) [Construct 640]
[1]
  binds to HSGP, affinity: binds to HSGP with low affinity (DTx protein)

## 639 (NGRKIRMRCRAIDGD) [Construct 639]
[1]
  binds to HSGP, affinity: binds to HSGP with high affinity (DTx protein)

## peptide 13: EDANS-conjugated MMP linker peptide with GPLGVRG site; retention motif target pH dependent fibronectin (GGGWSHWGPLGVRG-{EDANS}; also: EDANS fluorophore conjugated at 3' end)
fibronectin
  binding to fibronectin at pH6 vs pH 7.5: enhanced binding at pH6
fibronectin; 2 hours
  binding to fibronectin: able to bind fibronectin

B1: Construct GG: m IL2-SGG-KLWVLPK-MMPcs1-2x(G4S)-mIL2Ra(1-215)-mu IgG1 Fc (Fc fusion)
chain: APTSSSTSSSTAEAQQQQQQQQQQQQHLEQLLMDLQELLSRMENYRNLKLPRMLTFKFYLPKQATELKDLQCLEDELGPLRHVLDLTQSKSFQLEDAENFISNIRVTVVKLKGSDNTFECQFDDESATVVDFLRRWIAFCQSIISTSPQSGGKLWVLPKGPLGVRGGGGGSGGGGSELCLYDPPEVPNATFKALSYKNGTILNCECKRGFRRLKELVYMRCLGNSWSSNCQCTSNSHDKSRKQVTAQLEHQKEQQTTTDMQKPTQSMHQENLTGHCREPPPWKHEDSKRIYHFVEGQSVHYECIPGYKALQRGPAISICKMKCGKTGWTQPQLTCVDEREHHRFLASEESQGSRNSSPESETSCPITTTDFPQPTETTAMTETFVLTMEYKGCKPCICTVPEVSSVFIFPPKPKDVLTITLTPKVTCVVVDISKDDPEVQFSWFVDDVEVHTAQTQPREEQFNSTFRSVSELPIMHQDWLNGKEFKCRVNSAAFPAPIEKTISKTKGRPKAPQVYTIPPPKEQMAKDKVSLTCMITDFFPEDITVEWQWNGQPAENYKNTQPIMDTDGSYFVYSKLNVQKSNWEAGNTFTCSVLHEGLHNHHTEKSLSHSPGK
[2]
  fraction bound (% of input): < 1 % of input

B2: Construct II: m IL2-…-MMPcs1-2x(G4S)-mIL2Ra(1-215)-mu IgG1 Fc (Fc fusion)
chain: APTSSSTSSSTAEAQQQQQQQQQQQQHLEQLLMDLQELLSRMENYRNLKLPRMLTFKFYLPKQATELKDLQCLEDELGPLRHVLDLTQSKSFQLEDAENFISNIRVTVVKLKGSDNTFECQFDDESATVVDFLRRWIAFCQSIISTSPQSLHERHLNNNGPLGVRGGGGGSGGGGSELCLYDPPEVPNATFKALSYKNGTILNCECKRGFRRLKELVYMRCLGNSWSSNCQCTSNSHDKSRKQVTAQLEHQKEQQTTTDMQKPTQSMHQENLTGHCREPPPWKHEDSKRIYHFVEGQSVHYECIPGYKALQRGPAISICKMKCGKTGWTQPQLTCVDEREHHRFLASEESQGSRNSSPESETSCPITTTDFPQPTETTAMTETFVLTMEYKGCKPCICTVPEVSSVFIFPPKPKDVLTITLTPKVTCVVVDISKDDPEVQFSWFVDDVEVHTAQTQPREEQFNSTFRSVSELPIMHQDWLNGKEFKCRVNSAAFPAPIEKTISKTKGRPKAPQVYTIPPPKEQMAKDKVSLTCMITDFFPEDITVEWQWNGQPAENYKNTQPIMDTDGSYFVYSKLNVQKSNWEAGNTFTCSVLHEGLHNHHTEKSLSHSPGK
[2]
  fraction bound (% of input): < 1 % of input

B3: Construct DD: SEQ ID NO 814: m IL2-2x(GHHPH)-MMPscr-2x(G4S)-mIL2Ra(1-215)-mu IgG1 Fc (protein)
chain: APTSSSTSSSTAEAQQQQQQQQQQQQHLEQLLMDLQELLSRMENYRNLKLPRMLTFKFYLPKQATELKDLQCLEDELGPLRHVLDLTQSKSFQLEDAENFISNIRVTVVKLKGSDNTFECQFDDESATVVDFLRRWIAFCQSIISTSPQGHHPHGHHPHGVRLGPGGGGGSGGGGSELCLYDPPEVPNATFKALSYKNGTILNCECKRGFRRLKELVYMRCLGNSWSSNCQCTSNSHDKSRKQVTAQLEHQKEQQTTTDMQKPTQSMHQENLTGHCREPPPWKHEDSKRIYHFVEGQSVHYECIPGYKALQRGPAISICKMKCGKTGWTQPQLTCVDEREHHRFLASEESQGSRNSSPESETSCPITTTDFPQPTETTAMTETFVLTMEYKGCKPCICTVPEVSSVFIFPPKPKDVLTITLTPKVTCVVVDISKDDPEVQFSWFVDDVEVHTAQTQPREEQFNSTFRSVSELPIMHQDWLNGKEFKCRVNSAAFPAPIEKTISKTKGRPKAPQVYTIPPPKEQMAKDKVSLTCMITDFFPEDITVEWQWNGQPAENYKNTQPIMDTDGSYFVYSKLNVQKSNWEAGNTFTCSVLHEGLHNHHTEKSLSHSPGK
EMT6 tumor
  tumor-associated fluorescence relative to Construct GGG: roughly 2 fold

B4: Construct A: SEQ ID NO 100: mIL2-2x(SG4)-MMPcs1-2x(G4S)-IL2Ralpha-6His (protein)
chain: APTSSSTSSSTAEAQQQQQQQQQQQQHLEQLLMDLQELLSRMENYRNLKLPRMLTFKFYLPKQATELKDLQCLEDELGPLRHVLDLTQSKSFQLEDAENFISNIRVTVVKLKGSDNTFECQFDDESATVVDFLRRWIAFCQSIISTSPQSGGGGSGGGGGPLGVRGGGGGSGGGGSELCLYDPPEVPNATFKALSYKNGTILNCECKRGFRRLKELVYMRCLGNSWSSNCQCTSNSHDKSRKQVTAQLEHQKEQQTTTDMQKPTQSMHQENLTGHCREPPPWKHEDSKRIYHFVEGQSVHYECIPGYKALQRGPAISICKMKCGKTGWTQPQLTCVDEREHHRFLASEESQGSRNSSPESETSCPITTTDFPQPTETTAMTETFVLTMEYKHHHHHH
MC38 tumor; daily intra-tumoral injection, 10 injections, Construct A 70ug/day, r hIL2 5 ug/day
  anti-tumor activity: substantially inhibited tumor growth; also recorded: complete elimination of tumor
MC38 tumor; re-inoculated on Day 40, a month after re-challenge
  tumor establishment after re-challenge with MC38 cells: Tumor growth was rejected; also recorded: no tumor mass was established
CTLL-2 cells; CTLL-2 proliferation
  greater activity of MMP-9 treated than untreated construct (EC50 comparison): 10 fold
CTLL-2 cells; cleaved by MMP-9
  CTLL-2 cell proliferation, MMP-9 treated construct: stimulates CTLL-2 cell proliferation in a dose dependent manner
MMP9; +MMP-9 digestion, Western blot
  time at which cleavage product was detectable: 1 h
MMP9; overnight +MMP time point
  full-length cytokine prodrug remaining: substantially undetectable

From US20240043489A1, “Cytokine Prodrugs Comprising a Cleavable Linker” (Trutino Biosciences Inc., priority 2020, published 2024)
